Data on four molecules can be found in PMC10213050 (Nature Communications, 2023).

B1: 6xHis-hRad51 (natural protein, human, UniProt Q06609 1-339, looked up)
chain: MAMQMQLEANADTSVEEESFGPQPISRLEQCGINANDVKKLEEAGFHTVEAVAYAPKKELINIKGISEAKADKILAEAAKLVPMGFTTATEFHQRRSEIIQITTGSKELDKLLQGGIETGSITEMFGEFRTGKTQICHTLAVTCQLPIDRGGGEGKAMYIDTEGTFRPERLLAVAERYGLSGSDVLDNVAYARAFNTDHQTQLLYQASAMMVESRYALLIVDSATALYRTDYSGRGELSARQMHLARFLRMLLRLADEFGVAVVITNQVVAQVDGAAMFAADPKKPIGGNIIAHASTTRLYLRKGRGETRICKIYDSPCLPEAEAMFAINADGVGDAKD
notes: human Rad51 recombinase; also called recombinant hRad51; source: E. coli BL21 (DE3), purified (Ni-NTA)

Common to all, as to settings: both partners purified
One assay concerns the target T1, GST-RNF20 (human, UniProt Q5VTR2 1-975).
T1 construct: RNF20, human homolog of Bre1; an asterisk marks the full-length band on the gel; also called full-length GST-RNF20
Nature of the assay: pull-down; GST-tagged Bre1 (WT, truncated or mutant) or GST-RNF20 on glutathione agarose beads, incubated with 6xHis-tagged Rad51, hRad51 or FBH1 at 4 °C for 4 h; wash 20 mM Tris-HCl pH 7.4, 200 mM NaCl; Western blot or Coomassie.

Another assay deals with T2, GST-Srs2 (yeast (Saccharomyces cerevisiae), UniProt P12954 1-1174).
T2 construct: Srs2 helicase, yeast; also called recombinant GST-Srs2
T2 sequence (looked up): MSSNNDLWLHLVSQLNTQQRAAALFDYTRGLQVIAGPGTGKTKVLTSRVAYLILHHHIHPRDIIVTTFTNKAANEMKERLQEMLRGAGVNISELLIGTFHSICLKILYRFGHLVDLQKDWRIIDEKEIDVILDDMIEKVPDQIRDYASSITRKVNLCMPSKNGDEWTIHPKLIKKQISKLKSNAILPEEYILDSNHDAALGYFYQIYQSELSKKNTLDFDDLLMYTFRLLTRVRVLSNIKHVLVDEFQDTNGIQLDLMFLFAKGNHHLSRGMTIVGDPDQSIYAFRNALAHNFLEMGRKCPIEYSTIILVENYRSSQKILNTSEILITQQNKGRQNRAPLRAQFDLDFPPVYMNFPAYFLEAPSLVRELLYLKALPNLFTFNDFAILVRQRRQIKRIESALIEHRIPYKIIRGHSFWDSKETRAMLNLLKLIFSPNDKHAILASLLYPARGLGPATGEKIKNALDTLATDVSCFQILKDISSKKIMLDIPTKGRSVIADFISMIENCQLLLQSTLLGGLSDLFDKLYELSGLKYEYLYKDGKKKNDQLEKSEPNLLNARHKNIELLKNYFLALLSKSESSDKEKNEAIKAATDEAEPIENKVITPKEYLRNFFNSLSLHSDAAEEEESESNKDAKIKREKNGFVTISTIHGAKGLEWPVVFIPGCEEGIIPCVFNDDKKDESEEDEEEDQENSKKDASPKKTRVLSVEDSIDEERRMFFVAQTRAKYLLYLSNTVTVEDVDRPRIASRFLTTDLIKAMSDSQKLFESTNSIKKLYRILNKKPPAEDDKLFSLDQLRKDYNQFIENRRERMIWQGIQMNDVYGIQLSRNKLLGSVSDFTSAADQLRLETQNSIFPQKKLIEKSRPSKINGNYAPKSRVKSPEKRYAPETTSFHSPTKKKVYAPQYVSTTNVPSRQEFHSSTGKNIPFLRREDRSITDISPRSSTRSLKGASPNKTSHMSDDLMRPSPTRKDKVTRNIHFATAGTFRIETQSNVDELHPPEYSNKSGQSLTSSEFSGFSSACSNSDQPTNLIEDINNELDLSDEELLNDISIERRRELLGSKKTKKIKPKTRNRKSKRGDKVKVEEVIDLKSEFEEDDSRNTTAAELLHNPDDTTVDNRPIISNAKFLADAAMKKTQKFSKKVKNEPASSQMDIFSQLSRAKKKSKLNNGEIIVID
Briefly: pull-down; GST-Srs2 on beads with 6xHis-tagged WT, truncated or mutated Bre1; detected by Western blot with an anti-His antibody; whether ssDNA was included is not told. On the technique in general: Immunoblotting shows a protein as a band on a membrane.

For the assay “6xHis-hRad51”, the target named is B1. Briefly: pull-down; ssDNA pull-down: 5'-biotinylated 90-nt ssDNA on streptavidin magnetic beads, yeast or human Rad51 bound first, then Bre1 or RNF20N added; 37 °C; 42 mM Tris-HCl pH 7.5, 15 mM KCl, 90 mM NaCl, 2 mM ATP; Bre1 or RNF20N alone did not bind the ssDNA.
The next assay has as its target T3, GST-Bre1 (yeast (Saccharomyces cerevisiae), UniProt Q07457 1-700).
T3 construct: Bre1, yeast ubiquitin E3 ligase; RBD 1-210, linker 211-614, RING 615-700; also called GST-tagged WT Bre1; recombinant GST-Bre1
T3 sequence (looked up): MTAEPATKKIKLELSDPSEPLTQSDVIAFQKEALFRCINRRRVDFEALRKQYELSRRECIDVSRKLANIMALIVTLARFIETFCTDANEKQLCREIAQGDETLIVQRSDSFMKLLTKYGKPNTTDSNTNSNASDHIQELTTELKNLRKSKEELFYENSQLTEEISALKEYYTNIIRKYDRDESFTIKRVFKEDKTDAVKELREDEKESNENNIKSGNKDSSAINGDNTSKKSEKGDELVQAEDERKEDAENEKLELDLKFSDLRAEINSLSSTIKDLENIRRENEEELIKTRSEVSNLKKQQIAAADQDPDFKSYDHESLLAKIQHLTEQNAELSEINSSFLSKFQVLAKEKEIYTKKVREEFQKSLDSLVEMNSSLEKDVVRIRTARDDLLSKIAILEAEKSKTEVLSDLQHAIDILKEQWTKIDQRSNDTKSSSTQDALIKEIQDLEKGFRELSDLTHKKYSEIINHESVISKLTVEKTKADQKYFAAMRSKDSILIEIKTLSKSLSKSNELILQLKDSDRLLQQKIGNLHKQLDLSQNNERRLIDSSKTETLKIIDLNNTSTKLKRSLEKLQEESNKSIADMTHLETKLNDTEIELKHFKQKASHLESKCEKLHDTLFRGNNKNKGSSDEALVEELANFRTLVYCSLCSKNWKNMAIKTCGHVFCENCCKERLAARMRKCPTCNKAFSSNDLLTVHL
Nature of the assay: pull-down; GST-tagged Bre1 (WT, truncated or mutant) or GST-RNF20 on glutathione agarose beads, incubated with 6xHis-tagged Rad51, hRad51 or FBH1 at 4 °C for 4 h; wash 20 mM Tris-HCl pH 7.4, 200 mM NaCl; Western blot or Coomassie.

Assay [1] concerns the target T4, GST-tagged truncated Bre1 1-504 aa (yeast (Saccharomyces cerevisiae), UniProt Q07457 1-504).
T4 construct: source: recombinant, GST-tagged
T4 sequence (looked up): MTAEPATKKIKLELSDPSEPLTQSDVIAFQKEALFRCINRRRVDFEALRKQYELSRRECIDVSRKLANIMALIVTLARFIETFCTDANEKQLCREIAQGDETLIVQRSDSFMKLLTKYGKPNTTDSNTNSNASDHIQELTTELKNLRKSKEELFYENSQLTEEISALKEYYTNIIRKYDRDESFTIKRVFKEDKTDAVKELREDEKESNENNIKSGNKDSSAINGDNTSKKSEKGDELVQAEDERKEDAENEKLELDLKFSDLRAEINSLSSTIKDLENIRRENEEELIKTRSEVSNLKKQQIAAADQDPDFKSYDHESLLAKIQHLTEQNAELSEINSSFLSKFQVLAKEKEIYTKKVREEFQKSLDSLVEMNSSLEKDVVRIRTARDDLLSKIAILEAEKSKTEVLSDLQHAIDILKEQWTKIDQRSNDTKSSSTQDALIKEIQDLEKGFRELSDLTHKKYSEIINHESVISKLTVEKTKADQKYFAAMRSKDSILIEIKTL
The assay is described as above.

In another assay the target is T5, 6xHis-Bre1 (yeast (Saccharomyces cerevisiae), UniProt Q07457 1-700).
T5 construct: Bre1, yeast ubiquitin E3 ligase; also called WT Bre1; wild-type Bre1; source: E. coli BL21 (DE3), purified (Ni-NTA)
T5 sequence (looked up): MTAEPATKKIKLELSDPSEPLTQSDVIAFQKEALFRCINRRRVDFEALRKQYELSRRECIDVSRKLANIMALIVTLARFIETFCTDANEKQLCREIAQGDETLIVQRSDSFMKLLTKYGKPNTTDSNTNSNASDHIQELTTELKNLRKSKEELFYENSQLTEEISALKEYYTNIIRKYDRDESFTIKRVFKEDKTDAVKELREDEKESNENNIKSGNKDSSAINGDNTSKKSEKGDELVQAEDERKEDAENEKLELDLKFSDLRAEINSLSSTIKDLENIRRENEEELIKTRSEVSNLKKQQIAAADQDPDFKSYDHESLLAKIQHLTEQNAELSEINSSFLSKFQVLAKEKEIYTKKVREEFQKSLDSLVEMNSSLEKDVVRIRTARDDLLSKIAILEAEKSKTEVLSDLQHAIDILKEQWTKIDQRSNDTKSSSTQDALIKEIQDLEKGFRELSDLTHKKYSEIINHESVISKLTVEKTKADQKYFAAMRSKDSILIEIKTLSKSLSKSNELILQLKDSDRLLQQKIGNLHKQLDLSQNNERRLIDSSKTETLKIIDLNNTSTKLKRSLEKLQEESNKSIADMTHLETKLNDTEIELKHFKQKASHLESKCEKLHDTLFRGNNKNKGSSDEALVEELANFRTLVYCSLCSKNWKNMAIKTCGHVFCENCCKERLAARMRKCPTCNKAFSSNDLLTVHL
Briefly: pull-down; ssDNA pull-down: 5'-biotinylated 90-nt ssDNA on streptavidin magnetic beads, yeast or human Rad51 bound first, then Bre1 or RNF20N added; 37 °C; 42 mM Tris-HCl pH 7.5, 15 mM KCl, 90 mM NaCl, 2 mM ATP; Bre1 or RNF20N alone did not bind the ssDNA.

For B1, the binding result in the assay with GST-RNF20 is “binds”.

B2: 6xHis-tagged Bre1 truncation 1-501 aa (domain or fragment, yeast (Saccharomyces cerevisiae), UniProt Q07457 1-501, looked up)
chain: MTAEPATKKIKLELSDPSEPLTQSDVIAFQKEALFRCINRRRVDFEALRKQYELSRRECIDVSRKLANIMALIVTLARFIETFCTDANEKQLCREIAQGDETLIVQRSDSFMKLLTKYGKPNTTDSNTNSNASDHIQELTTELKNLRKSKEELFYENSQLTEEISALKEYYTNIIRKYDRDESFTIKRVFKEDKTDAVKELREDEKESNENNIKSGNKDSSAINGDNTSKKSEKGDELVQAEDERKEDAENEKLELDLKFSDLRAEINSLSSTIKDLENIRRENEEELIKTRSEVSNLKKQQIAAADQDPDFKSYDHESLLAKIQHLTEQNAELSEINSSFLSKFQVLAKEKEIYTKKVREEFQKSLDSLVEMNSSLEKDVVRIRTARDDLLSKIAILEAEKSKTEVLSDLQHAIDILKEQWTKIDQRSNDTKSSSTQDALIKEIQDLEKGFRELSDLTHKKYSEIINHESVISKLTVEKTKADQKYFAAMRSKDSILIEI
notes: source: recombinant, 6xHis-tagged
For the molecule B2, in the assay with GST-Srs2, the binding result is given as “binds”.

B3: GST-RNF20N (domain or fragment, human, UniProt Q5VTR2 1-300, looked up)
chain: MSGIGNKRAAGEPGTSMPPEKKAAVEDSGTTVETIKLGGVSSTEELDIRTLQTKNRKLAEMLDQRQAIEDELREHIEKLERRQATDDASLLIVNRYWSQFDENIRIILKRYDLEQGLGDLLTERKALVVPEPEPDSDSNQERKDDRERGEGQEPAFSFLATLASSSSEEMESQLQERVESSRRAVSQIVTVYDKLQEKVELLSRKLNSGDNLIVEEAVQELNSFLAQENMRLQELTDLLQEKHRTMSQEFSKLQSKVETAESRVSVLESMIDDLQWDIDKIRKREQRLNRHLAEVLERVN
notes: also called N-terminal fragment RNF20N (1-300 aa)
On to B3, for which the binding result in the assay with 6xHis-hRad51 is listed as “binds”.

B4: 6xHis-Rad51 (natural protein, yeast (Saccharomyces cerevisiae), UniProt P25454 1-400, looked up)
chain: MSQVQEQHISESQLQYGNGSLMSTVPADLSQSVVDGNGNGSSEDIEATNGSGDGGGLQEQAEAQGEMEDEAYDEAALGSFVPIEKLQVNGITMADVKKLRESGLHTAEAVAYAPRKDLLEIKGISEAKADKLLNEAARLVPMGFVTAADFHMRRSELICLTTGSKNLDTLLGGGVETGSITELFGEFRTGKSQLCHTLAVTCQIPLDIGGGEGKCLYIDTEGTFRPVRLVSIAQRFGLDPDDALNNVAYARAYNADHQLRLLDAAAQMMSESRFSLIVVDSVMALYRTDFSGRGELSARQMHLAKFMRALQRLADQFGVAVVVTNQVVAQVDGGMAFNPDPKKPIGGNIMAHSSTTRLGFKKGKGCQRLCKVVDSPCLPEAECVFAIYEDGVGDPREEDE
notes: Rad51 recombinase, yeast; also called 6xHis-tagged Rad51; yeast Rad51; source: E. coli BL21 (DE3), purified (Ni-NTA)
On to B4, for which the binding result (in the assay with GST-Bre1; in assay [1]; with 6xHis-Bre1) was “binds” throughout.
